# B1: Antiviral innate immune response receptor RIG-I (Homo sapiens), O95786 (parent)
# chain: MTTEQRRSLQAFQDYIRKTLDPTYILSYMAPWFREEEVQYIQAEKNNKGPMEAATLFLKFLLELQEEGWFRGFLDALDHAGYSGLYEAIESWDFKKIEKLEEYRLLLKRLQPEFKTRIIPTDIISDLSECLINQECEEILQICSTKGMMAGAEKLVECLLRSDKENWPKTLKLALEKERNKFSELWIVEKGIKDVETEDLEDKMETSDIQIFYQEDPECQNLSENSCPPSEVSDTNLYSPFKPRNYQLELALPAMKGKNTIICAPTGCGKTFVSLLICEHHLKKFPQGQKGKVVFFANQIPVYEQQKSVFSKYFERHGYRVTGISGATAENVPVEQIVENNDIIILTPQILVNNLKKGTIPSLSIFTLMIFDECHNTSKQHPYNMIMFNYLDQKLGGSSGPLPQVIGLTASVGVGDAKNTDEALDYICKLCASLDASVIATVKHNLEELEQVVYKPQKFFRKVESRISDKFKYIIAQLMRDTESLAKRICKDLENLSQIQNREFGTQKYEQWIVTVQKACMVFQMPDKDEESRICKALFLYTSHLRKYNDALIISEHARMKDALDYLKDFFSNVRAAGFDEIEQDLTQRFEEKLQELESVSRDPSNENPKLEDLCFILQEEYHLNPETITILFVKTRALVDALKNWIEGNPKLSFLKPGILTGRGKTNQNTGMTLPAQKCILDAFKASGDHNILIATSVADEGIDIAQCNLVILYEYVGNVIKMIQTRGRGRARGSKCFLLTSNAGVIEKEQINMYKEKMMNDSILRLQTWDEAVFREKILHIQTHEKFIRDSQEKPKPVPDKENKKLLCRKCKALACYTADVRVIEECHYTVLGDAFKECFVSRPHPKPKQFSSFEKRAKIFCARQNCSHDWGIHVKYKTFEIPVIKIESFVVEDIATGVQTLYSKWKDFHFEKIPFDPAEMSK
# partner: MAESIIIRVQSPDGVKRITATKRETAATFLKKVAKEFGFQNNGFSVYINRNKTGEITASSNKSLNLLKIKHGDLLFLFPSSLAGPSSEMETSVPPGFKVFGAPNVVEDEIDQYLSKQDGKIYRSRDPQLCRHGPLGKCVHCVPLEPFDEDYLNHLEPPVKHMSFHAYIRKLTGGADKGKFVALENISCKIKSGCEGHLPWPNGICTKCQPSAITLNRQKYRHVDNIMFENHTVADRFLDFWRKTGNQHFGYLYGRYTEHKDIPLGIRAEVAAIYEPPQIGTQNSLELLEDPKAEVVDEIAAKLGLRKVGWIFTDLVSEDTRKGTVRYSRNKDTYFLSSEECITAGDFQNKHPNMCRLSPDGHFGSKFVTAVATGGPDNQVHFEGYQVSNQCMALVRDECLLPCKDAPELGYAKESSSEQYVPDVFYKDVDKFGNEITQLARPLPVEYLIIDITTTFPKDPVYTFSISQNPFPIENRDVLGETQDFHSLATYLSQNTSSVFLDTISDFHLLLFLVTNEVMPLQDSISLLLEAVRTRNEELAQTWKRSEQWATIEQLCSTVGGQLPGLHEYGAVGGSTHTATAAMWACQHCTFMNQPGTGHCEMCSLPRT
# Variants of: B1
# Details: with npl4_human NPLOC4, Q8TAT6
row,Variant,effect of a mutation on the interaction
1,T170E;K172R,decreasing interaction strength
2,K181R,with no effect
3,K172R,decreasing interaction strength

# — IntAct's records for PubMed 26471729
